From PMC3590988 (The EMBO Journal, 2013)
Residue numbers refer to the chain shown, from its start. Numbers in names are those of the source. One block for each binder: values may come before it.

Legend:
Assay in all cases: BLI
[1] = target: T1, ScWpl1^259–647 N493A N622A L577R (S. cerevisiae, UniProt Q99359 259-647, N493A | N622A | L577R)
T1 sequence (looked up): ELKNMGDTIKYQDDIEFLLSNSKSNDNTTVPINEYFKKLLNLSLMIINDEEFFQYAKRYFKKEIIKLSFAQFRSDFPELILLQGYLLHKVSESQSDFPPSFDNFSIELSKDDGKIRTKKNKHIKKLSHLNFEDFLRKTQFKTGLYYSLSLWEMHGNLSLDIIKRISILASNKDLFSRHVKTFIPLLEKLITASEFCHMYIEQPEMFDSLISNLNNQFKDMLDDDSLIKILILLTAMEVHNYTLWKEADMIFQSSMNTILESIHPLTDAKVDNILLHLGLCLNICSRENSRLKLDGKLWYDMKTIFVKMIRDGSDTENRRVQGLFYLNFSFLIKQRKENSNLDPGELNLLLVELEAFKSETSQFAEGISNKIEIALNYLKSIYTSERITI

[2] = target: T2, ScWpl1^259–647 K376Q K377Q K382Q K383Q (S. cerevisiae, UniProt Q99359 259-647, K376Q | K377Q | K382Q | K383Q)
T2 sequence (looked up): T1 sequence (looked up) with K118Q, K119Q, K124Q, K125Q, A235N, R319L, A364N

[3] = target: T3, ScWpl1^259–647 N493E N622E (S. cerevisiae, UniProt Q99359 259-647, N493E | N622E)
T3 sequence (looked up): T1 sequence (looked up) with A235E, R319L, A364E

[4] = target: T4, ScWpl1^259–647 (Wapl domain of Saccharomyces cerevisiae Wpl1), wild type (S. cerevisiae, UniProt Q99359 259-647)
T4 sequence (looked up): T1 sequence (looked up) with A235N, R319L, A364N

[5] = target: T5, ScWpl1^259–647 N493A N622A L532E (S. cerevisiae, UniProt Q99359 259-647, N493A | N622A | L532E)
T5 sequence (looked up): T1 sequence (looked up) with L274E, R319L

[6] = target: T6, ScWpl1^259–647 D271A D272A (S. cerevisiae, UniProt Q99359 259-647, D271A | D272A)
T6 sequence (looked up): T1 sequence (looked up) with D13A, D14A, A235N, R319L, A364N

Kd [1]: 77 nM
koff [1]: 0.000428 s⁻¹
kon [1]: 5540 M⁻¹ s⁻¹
Kd [2]: 200 nM
koff [2]: 0.00056 s⁻¹
kon [2]: 2800 M⁻¹ s⁻¹
Kd [3]: 126 nM
koff [3]: 0.000492 s⁻¹
kon [3]: 3920 M⁻¹ s⁻¹
Kd [4]: 47 nM
koff [4]: 0.000248 s⁻¹
kon [4]: 5220 M⁻¹ s⁻¹
Kd [5]: 82 nM
koff [5]: 0.000344 s⁻¹
kon [5]: 4200 M⁻¹ s⁻¹
Kd [6]: 167 nM
koff [6]: 0.000395 s⁻¹
kon [6]: 2370 M⁻¹ s⁻¹
B1: GST-tagged ScSmc3 ATPase head (ScSmc3^AH), wild type (domain or fragment, S. cerevisiae)
chain: MYIKRVIIKGFKTYRNETIIDNFSPHQNVIIGSNGSGKSNFFAAIRFVLSDDYSNLKREERQGLIHQGSGGSVMSASVEIVFHDPDHSMILPSGVLSRGDDEVTIRRTVGLKKDDYQLNDRNVTKGDIVRMLETAGFSMNNPYNIVPQGKIVALTNAKDKERLQLLEDVVGAKSFEVKLKASLKKMEETESGGSGGKVSENFEAVFERLVPRGTAKLIIHRKNDNANDHDESIDVDMDAESNESQNGKDSEIMYTGVSISVSFNSKQNEQLHVEQLSGGQKTVCAIALILAIQMVDPASFYLFDEIDAALDKQYRTAVATLLKELSKNAQFICTTFRTDMLQVADKFFRVKYENKISTVIEVNREEAIGFIRGSNKFAEV

Kd [4]: 102 nM
koff [4]: 0.000597 s⁻¹
kon [4]: 5880 M⁻¹ s⁻¹
B2: GST-tagged ScSmc3^AH L163D L166D (domain or fragment, S. cerevisiae)
chain: B1 chain with L163D, L166D

Kd [4]: 88 nM
koff [4]: 0.000431 s⁻¹
kon [4]: 4880 M⁻¹ s⁻¹
B3: GST-tagged ScSmc3^AH K112N K113N (domain or fragment, S. cerevisiae)
chain: B1 chain with K112N, K113N

Kd [4]: 104 nM
koff [4]: 0.000497 s⁻¹
kon [4]: 4770 M⁻¹ s⁻¹
B4: GST-tagged ScSmc3^AH L163A L166A D168A (domain or fragment, S. cerevisiae)
chain: B1 chain with L163A, L166A, D168A
